Test results reported in the supplement of paper PMC10065799, “High-throughput profiling of sequence recognition by tyrosine kinases and SH2 domains using bacterial peptide display” (eLife, 2023).

Experiments:
c-Abl (mouse) = test: phosphorylation enrichment, bacterial display (enrichment ratio); higher = better substrate or ligand; peptides without Tyr show the background
Hck = Hck (UniProt P08631); test: as above
MERTK = MERTK (UniProt Q12866); test: as above
c-Src = test: as above
FGFR1 = FGFR1 (UniProt P11362); test: as above
Fes = Fes (UniProt P07332); test: as above
Fyn = Fyn (UniProt P06241); test: as above
EPHB1 = EPHB1 (UniProt P54762); test: as above
AncSZ = test: as above
EPHB2 = EPHB2 (UniProt P29323); test: as above
FGFR3 = FGFR3 (UniProt P22607); test: as above
Jak2 = Jak2 (UniProt O60674); test: as above
Fer (mouse) = test: as above
c-Src SH2 = test: SH2 binding enrichment of the phosphorylated peptide, bacterial display (enrichment ratio); higher = better substrate or ligand; peptides without Tyr show the background
SHP2-C SH2 = test: as above
Grb2 SH2 = Grb2 SH2 (UniProt P62993); test: as above
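For SH2 binding enrichment of the phosphorylated peptide, bacterial display in this document: peptide library displayed on the E. coli surface as eCPX fusions, selected cells deep-sequenced, score is each peptide's frequency after selection divided by its frequency in the input.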
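For phosphorylation enrichment, bacterial display in this document: 11-residue human phosphosite peptides and single-mutation variants displayed on the E. coli surface, counted by deep sequencing, each peptide's frequency after selection divided by its frequency in the unselected input library; frequency after pTyr selection over input frequency; kinase dosed for 20-30% of maximal phosphorylation in three min.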

Jak2, sequence (O60674 whole entry, looked up): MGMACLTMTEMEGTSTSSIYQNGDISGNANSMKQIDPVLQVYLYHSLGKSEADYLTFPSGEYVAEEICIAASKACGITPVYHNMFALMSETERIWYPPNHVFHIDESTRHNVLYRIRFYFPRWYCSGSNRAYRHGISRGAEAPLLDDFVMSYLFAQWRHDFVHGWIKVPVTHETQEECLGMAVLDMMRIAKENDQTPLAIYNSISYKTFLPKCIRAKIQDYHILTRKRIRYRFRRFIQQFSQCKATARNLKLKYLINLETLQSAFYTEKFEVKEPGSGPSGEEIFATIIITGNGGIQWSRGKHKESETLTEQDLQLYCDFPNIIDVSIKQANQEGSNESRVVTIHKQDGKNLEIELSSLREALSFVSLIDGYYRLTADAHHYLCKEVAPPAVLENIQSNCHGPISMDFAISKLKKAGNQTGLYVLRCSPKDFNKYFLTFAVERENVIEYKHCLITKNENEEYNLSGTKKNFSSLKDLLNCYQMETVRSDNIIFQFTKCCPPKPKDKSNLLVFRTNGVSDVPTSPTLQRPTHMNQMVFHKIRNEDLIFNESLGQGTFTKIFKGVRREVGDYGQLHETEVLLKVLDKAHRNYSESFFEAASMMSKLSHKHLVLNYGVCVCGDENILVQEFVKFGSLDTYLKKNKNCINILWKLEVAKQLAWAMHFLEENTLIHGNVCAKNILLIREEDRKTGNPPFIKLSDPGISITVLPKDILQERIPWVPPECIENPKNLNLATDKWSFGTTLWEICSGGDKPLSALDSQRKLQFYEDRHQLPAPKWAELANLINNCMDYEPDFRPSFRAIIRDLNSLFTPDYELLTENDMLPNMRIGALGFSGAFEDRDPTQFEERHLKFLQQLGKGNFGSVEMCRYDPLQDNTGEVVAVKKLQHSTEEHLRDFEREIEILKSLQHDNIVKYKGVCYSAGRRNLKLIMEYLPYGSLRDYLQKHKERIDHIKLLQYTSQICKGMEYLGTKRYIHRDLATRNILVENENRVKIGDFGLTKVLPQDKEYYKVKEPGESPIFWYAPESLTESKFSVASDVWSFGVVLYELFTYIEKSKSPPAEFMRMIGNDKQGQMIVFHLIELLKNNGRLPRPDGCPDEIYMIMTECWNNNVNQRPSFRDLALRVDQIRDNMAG
EPHB2, sequence (P29323 whole entry, looked up): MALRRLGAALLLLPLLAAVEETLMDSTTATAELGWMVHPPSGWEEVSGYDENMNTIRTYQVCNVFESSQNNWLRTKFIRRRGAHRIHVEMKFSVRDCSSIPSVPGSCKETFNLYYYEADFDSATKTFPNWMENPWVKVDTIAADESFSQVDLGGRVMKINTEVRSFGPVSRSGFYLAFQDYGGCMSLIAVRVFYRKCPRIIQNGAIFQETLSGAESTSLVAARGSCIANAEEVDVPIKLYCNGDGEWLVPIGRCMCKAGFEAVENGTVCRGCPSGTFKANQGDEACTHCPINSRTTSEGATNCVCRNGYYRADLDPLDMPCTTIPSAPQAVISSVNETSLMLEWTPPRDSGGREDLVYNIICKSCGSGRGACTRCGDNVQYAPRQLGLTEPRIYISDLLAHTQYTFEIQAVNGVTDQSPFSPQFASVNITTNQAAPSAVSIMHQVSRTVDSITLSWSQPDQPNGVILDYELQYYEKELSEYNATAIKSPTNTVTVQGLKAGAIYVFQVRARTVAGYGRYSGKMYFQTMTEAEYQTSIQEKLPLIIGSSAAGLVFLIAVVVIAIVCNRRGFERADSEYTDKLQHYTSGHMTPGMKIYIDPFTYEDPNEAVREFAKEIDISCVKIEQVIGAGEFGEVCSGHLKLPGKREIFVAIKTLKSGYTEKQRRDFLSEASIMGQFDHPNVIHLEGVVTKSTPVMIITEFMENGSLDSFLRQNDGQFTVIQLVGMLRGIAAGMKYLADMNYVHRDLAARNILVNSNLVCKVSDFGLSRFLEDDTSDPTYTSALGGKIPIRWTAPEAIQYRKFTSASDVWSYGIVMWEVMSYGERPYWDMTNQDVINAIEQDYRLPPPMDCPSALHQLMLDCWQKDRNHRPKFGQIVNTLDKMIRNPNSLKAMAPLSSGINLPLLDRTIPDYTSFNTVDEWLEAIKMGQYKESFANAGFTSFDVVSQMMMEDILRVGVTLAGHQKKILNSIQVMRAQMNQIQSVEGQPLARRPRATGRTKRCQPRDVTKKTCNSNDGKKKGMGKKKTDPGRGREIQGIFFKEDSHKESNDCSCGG
FGFR1, sequence (P11362 whole entry, looked up): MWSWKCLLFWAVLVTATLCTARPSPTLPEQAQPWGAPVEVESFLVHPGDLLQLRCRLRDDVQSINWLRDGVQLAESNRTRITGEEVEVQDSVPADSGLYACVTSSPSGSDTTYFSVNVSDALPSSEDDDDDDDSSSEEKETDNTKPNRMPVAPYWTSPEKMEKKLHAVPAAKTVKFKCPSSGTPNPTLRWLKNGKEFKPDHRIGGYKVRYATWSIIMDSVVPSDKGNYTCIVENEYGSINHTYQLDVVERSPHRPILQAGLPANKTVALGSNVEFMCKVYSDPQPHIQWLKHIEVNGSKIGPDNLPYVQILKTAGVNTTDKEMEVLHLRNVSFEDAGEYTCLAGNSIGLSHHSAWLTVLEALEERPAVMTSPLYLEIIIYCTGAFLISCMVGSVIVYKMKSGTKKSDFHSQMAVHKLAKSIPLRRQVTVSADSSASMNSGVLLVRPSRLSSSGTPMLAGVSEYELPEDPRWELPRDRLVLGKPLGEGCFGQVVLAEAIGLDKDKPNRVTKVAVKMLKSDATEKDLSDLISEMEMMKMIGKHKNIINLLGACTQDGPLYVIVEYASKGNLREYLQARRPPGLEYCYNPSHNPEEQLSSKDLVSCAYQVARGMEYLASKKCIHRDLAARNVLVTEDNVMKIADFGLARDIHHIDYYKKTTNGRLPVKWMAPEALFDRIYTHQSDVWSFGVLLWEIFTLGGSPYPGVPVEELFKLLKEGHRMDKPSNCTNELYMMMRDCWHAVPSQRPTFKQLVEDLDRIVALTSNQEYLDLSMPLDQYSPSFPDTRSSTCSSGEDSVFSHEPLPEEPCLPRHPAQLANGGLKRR
Hck, sequence (P08631 whole entry, looked up): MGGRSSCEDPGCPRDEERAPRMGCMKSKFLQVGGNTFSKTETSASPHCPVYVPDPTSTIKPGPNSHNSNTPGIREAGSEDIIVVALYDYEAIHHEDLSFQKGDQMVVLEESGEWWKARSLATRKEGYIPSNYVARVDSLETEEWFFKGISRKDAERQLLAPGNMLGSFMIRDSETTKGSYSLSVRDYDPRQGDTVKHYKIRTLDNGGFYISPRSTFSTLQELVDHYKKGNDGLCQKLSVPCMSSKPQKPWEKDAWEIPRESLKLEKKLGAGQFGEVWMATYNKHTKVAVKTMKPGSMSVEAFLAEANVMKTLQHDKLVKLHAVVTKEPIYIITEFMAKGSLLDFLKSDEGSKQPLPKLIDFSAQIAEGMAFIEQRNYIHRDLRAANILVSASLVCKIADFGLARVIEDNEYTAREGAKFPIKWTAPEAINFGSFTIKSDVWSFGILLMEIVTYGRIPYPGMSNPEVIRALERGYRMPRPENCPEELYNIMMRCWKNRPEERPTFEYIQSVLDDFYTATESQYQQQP
FGFR3, sequence (P22607 whole entry, looked up): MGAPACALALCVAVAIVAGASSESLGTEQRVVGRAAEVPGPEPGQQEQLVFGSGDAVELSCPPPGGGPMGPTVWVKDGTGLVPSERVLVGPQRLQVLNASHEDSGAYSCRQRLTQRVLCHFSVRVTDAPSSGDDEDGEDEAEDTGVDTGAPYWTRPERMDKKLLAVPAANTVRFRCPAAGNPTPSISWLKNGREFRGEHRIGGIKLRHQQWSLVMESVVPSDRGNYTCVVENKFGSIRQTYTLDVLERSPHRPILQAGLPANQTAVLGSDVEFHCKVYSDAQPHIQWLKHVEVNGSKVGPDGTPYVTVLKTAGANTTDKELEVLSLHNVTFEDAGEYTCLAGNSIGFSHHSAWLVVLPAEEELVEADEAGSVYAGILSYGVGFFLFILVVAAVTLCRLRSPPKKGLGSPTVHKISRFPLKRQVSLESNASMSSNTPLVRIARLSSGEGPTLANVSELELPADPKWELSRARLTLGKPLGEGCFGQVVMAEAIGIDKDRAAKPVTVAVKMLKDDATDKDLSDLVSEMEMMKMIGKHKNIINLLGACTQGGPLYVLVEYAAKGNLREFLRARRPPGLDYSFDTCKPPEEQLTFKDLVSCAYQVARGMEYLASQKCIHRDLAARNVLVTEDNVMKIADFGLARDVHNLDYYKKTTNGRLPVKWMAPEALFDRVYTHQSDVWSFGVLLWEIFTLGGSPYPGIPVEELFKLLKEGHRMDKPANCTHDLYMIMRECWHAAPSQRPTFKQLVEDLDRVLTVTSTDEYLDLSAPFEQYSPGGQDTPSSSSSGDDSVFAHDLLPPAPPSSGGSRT
Fyn, sequence (P06241 whole entry, looked up): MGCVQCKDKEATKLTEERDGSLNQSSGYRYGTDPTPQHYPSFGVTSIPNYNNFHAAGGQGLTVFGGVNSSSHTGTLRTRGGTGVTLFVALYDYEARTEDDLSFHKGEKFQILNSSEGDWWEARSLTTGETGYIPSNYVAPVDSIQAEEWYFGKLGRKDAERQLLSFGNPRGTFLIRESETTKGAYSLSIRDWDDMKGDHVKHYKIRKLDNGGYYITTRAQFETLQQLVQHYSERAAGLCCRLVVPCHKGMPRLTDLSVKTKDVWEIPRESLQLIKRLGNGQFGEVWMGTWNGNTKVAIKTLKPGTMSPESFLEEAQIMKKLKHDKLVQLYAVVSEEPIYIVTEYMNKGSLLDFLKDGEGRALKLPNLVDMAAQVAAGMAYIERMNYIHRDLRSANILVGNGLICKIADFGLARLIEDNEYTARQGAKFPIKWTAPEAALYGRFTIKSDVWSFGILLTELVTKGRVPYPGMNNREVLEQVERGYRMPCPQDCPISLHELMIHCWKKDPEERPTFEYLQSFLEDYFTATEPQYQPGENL

SH2 binding enrichment (c-Src SH2)	SH2 binding enrichment (SHP2-C SH2)	SH2 binding enrichment (Grb2 SH2)	Sequence	phosphorylation enrichment (c-Abl (mouse))	phosphorylation enrichment (Hck)	phosphorylation enrichment (MERTK)	phosphorylation enrichment (c-Src)	phosphorylation enrichment (FGFR1)	phosphorylation enrichment (Fes)	phosphorylation enrichment (Fyn)	phosphorylation enrichment (EPHB1)	phosphorylation enrichment (AncSZ)	phosphorylation enrichment (EPHB2)	phosphorylation enrichment (FGFR3)	phosphorylation enrichment (Jak2)	phosphorylation enrichment (Fer (mouse))
0.682	4.56	0.717	YSNVLYRPRGP [TMIGD2_Y197_A202P]	0.461	0.69	0.856	0.421	0.685	0.656	0.501	0.492	0.796	0.576	0.525	0.501	1.83
0.349	0.899	1.07	LTDTVYSSSSA [OR4C12_Y71_I67T]	0.911	1.93	0.58	2.33	0.694	1.15	2.53	0.323	1.12	0.374	0.586	1.09	1.69
0.652	0.79	1.03	KASRKYYAMKI [AKT3_Y173_G171R]	0.393	0.339	0.5	0.257	0.481	0.476	0.267	0.22	0.416	0.304	0.353	0.484	0.589
0.358	0.493	0.747	HRTLVYGGIFL [FBP1_Y259]	1.06	3.69	0.532	3.83	0.704	1.38	5.36	0.677	1.19	0.84	1.01	1.07	1.01
0.331	0.561	0.757	NSRFTYKLEVK [USH2A_Y3747_YF]	0.853	0.475	0.467	0.382	0.432	1.39	0.38	0.649	1.22	0.545	0.761	1.25	0.599
0.52	0.747	0.833	GGGGSYNVFGN [HNRNPA1_Y312_D314V]	0.652	0.424	0.457	0.488	0.467	0.742	0.441	0.404	0.65	0.523	0.515	0.723	0.419
0.75	0.921	1.03	KYVKMCDNHQL [MYO9A_Y203_Y203C]	0.512	0.432	0.447	0.429	0.532	0.546	0.407	0.442	0.635	0.632	0.547	0.491	0.379
0.427	1.03	0.762	IQTDGDRAPEA [UHMK1_Y197_Y197D]	0.79	0.655	0.487	0.536	0.602	1.35	0.466	0.636	1.08	0.702	0.88	0.96	0.595
0.362	0.469	0.754	GSIQQYIFKQE [PRG4_Y1271_YF]	0.499	0.537	0.452	0.545	0.531	0.738	0.429	0.476	0.836	0.573	0.574	0.508	0.451
1.96	0.991	0.854	YGCGMYSHLQG [LGR4_Y848_D844G]	1.49	4.44	5.25	2.87	1.06	1.07	1.51	1.06	1.2	1.07	0.998	0.723	1.24
1.5	1.12	0.892	NYADPYRQLQY [CTNND2_Y503]	0.687	0.615	2.57	0.551	3.72	0.747	0.43	9.61	0.776	10.8	1.99	0.672	0.464
0.767	0.76	0.76	IRYPPYTDWNQ [ALDH3B2_Y365_H361R]	0.487	0.464	0.429	0.418	0.628	0.826	0.468	0.428	0.781	0.494	0.612	0.675	0.567
0.427	0.527	0.809	SVETPYGSVTF [NDRG2_Y47]	0.635	2.16	0.52	4.56	0.397	0.928	5.93	0.501	0.82	0.438	0.53	0.606	5.24
0.562	1.02	1.06	VIKDKYPQARF [APTX_Y209_K211Q_YF]	0.47	0.308	0.406	0.44	0.367	0.579	0.35	0.436	0.453	0.326	0.469	0.553	0.328
11.8	1.24	1.48	YETVKYINNER [ABCB7_Y345_F346I]	0.619	1.96	0.903	1.1	1.22	0.943	1.22	0.73	0.858	0.623	0.832	0.803	10.5
0.628	1.02	1.12	QNVADYMRYLM [RPL5_Y207]	0.682	0.736	0.523	0.684	1.07	1.96	0.723	1.98	1.49	1.16	0.893	0.994	0.736
0.517	0.588	0.941	PLQHVYKIGGI [EEF1A2_Y254_D252H]	0.766	0.865	0.739	0.959	0.649	1.06	0.643	0.73	0.964	0.71	0.733	1.52	0.696

SH2 binding enrichment (c-Src SH2)	SH2 binding enrichment (SHP2-C SH2)	SH2 binding enrichment (Grb2 SH2)	Sequence	phosphorylation enrichment (c-Abl (mouse))	phosphorylation enrichment (Hck)	phosphorylation enrichment (MERTK)	phosphorylation enrichment (c-Src)	phosphorylation enrichment (FGFR1)	phosphorylation enrichment (Fes)	phosphorylation enrichment (Fyn)	phosphorylation enrichment (EPHB1)	phosphorylation enrichment (AncSZ)	phosphorylation enrichment (EPHB2)	phosphorylation enrichment (FGFR3)	phosphorylation enrichment (Jak2)	phosphorylation enrichment (Fer (mouse))
0.411	0.501	0.69	ELTSVYGSRAR [SENP1_Y349_D350G]	0.567	1.86	0.449	1.96	0.41	0.633	1.97	0.378	0.523	0.42	0.583	0.538	0.424
0.753	1.38	1.03	QGCGIYKDFFR [PLA2G2D_Y82_S80G_YF]	1.26	3.89	0.534	6.23	0.7	1.49	5.88	0.548	1.08	0.852	0.885	1.17	0.76
2.51	0.418	0.717	FTNRSYDLDYD [MYC_Y12_N11S]	0.645	0.632	0.512	0.576	0.561	1.13	0.565	0.542	1.24	0.841	0.745	0.804	0.488
0.612	0.773	0.812	KNITEYCRHLI [RECQL_Y492_D495H]	0.654	0.455	0.43	0.477	0.526	0.855	0.433	0.51	0.726	0.436	0.533	0.88	0.533
0.453	0.648	0.762	GGTTLYPGIAD [ACTC1_Y308_M307L]	0.484	0.442	0.381	0.363	0.537	0.765	0.458	0.446	0.587	0.531	0.548	0.553	0.431
0.685	0.68	0.886	AQINLYQDVML [ZNF806_Y33]	0.928	2.05	2.17	1.05	1.14	2.83	1.15	15	1.25	8.39	1.29	1.01	15.4
0.419	0.551	0.556	SGPRRYNIAAL [TTR_Y125_T126N]	0.452	0.43	0.411	0.409	0.505	0.52	0.377	0.285	0.572	0.343	0.394	0.511	0.432
1.67	2.28	1.74	LVMFIYDIFGM [SCN1A_Y1684_A1685D]	1.55	5.56	5.95	6.25	1.66	3.08	8.72	2.11	5.48	2.92	1.9	1.72	3.13
1.71	13.7	0.796	NMHSTYAKLAA [SEC22B_Y193]	0.47	0.948	0.38	0.375	0.385	0.401	0.415	0.437	0.382	0.451	0.349	0.362	0.34
0.495	0.529	0.819	GVIRHYVVCST [BTK_Y334]	0.87	0.536	0.447	0.444	0.555	1.25	0.535	0.68	1.13	0.712	0.813	1.12	0.566
0.478	0.399	0.759	YDKEYYSVHNK [MET_Y1235]	0.684	0.922	0.441	0.881	4.29	0.754	0.455	0.542	1.36	0.428	2.95	1.01	0.425
0.587	0.693	0.941	WVFNHYRWFIW [BRCA2_Y2624_I2627F_YF]	0.898	0.482	0.463	0.409	0.49	1.32	0.462	0.654	1.13	0.636	0.813	1.25	0.575
0.657	0.906	0.597	KIDAKYKKKIK [WDR19_Y1230_E1235K]	0.8	0.398	0.368	0.484	0.376	0.809	0.305	0.38	0.553	0.319	0.834	0.755	0.447
0.866	0.682	0.859	VPLATYMQIFK [RPL21_Y30_R32Q_YF]	0.361	1.8	0.613	1.54	0.471	0.654	0.887	1.83	0.745	0.648	0.54	0.836	0.308
1.06	0.852	0.908	VFLGAYDRFLP [SLC22A5_Y486_YF]	0.782	4	5.13	4.15	0.704	1.02	2.96	1.01	1.19	1.58	0.656	0.976	1.18
0.923	0.64	0.848	KPVDTYYDSTR [DYNC2H1_Y2230_M2227V]	0.633	0.808	0.397	0.56	0.826	0.809	0.508	0.648	0.808	0.496	0.668	0.756	0.427
